This note sets out measurements from patent publication US20230050773A1 (AstraZeneca / MedImmune, published 2023).

The target in assay [1] is T1, recombinant human LIF (Leukemia Inhibitory Factor) (human, UniProt P15018 23-202). Put plainly: cell-based or functional assay.
Assay [2] has as its target T1, recombinant human LIF (Leukemia …). Put plainly: ELISA, coated recombinant human LIF, anti-human Fc HRP detection. The method, then: Recombinant human LIF was coated on maxisorp plates overnight at 4° C. The next day, plates were blocked with casein blocking buffer for 1 hour at 37° C. Titrations of each antibody were added to the plates and allowed to bind for 1 hour at room temperature. Plates were washed 4× with PBST followed by incubation with an HRP conjugated anti-human Fc secondary for 30 minutes at RT. Plates were then washed again with 4×PBST and then developed using TMB substrate and 1M HCl.

Assay [3] shares this target. Description: BLI (Octet), antibody on anti-human Fc biosensors, human LIF in solution. Here is the method:
Affinities were determined using biolayer interferometry on the Octet platform. Anti-human Fc biosensors were used to load chimeric B7 and humanized variants, and titrations of recombinant human LIF (200 nM→0 nM) were associated for 180 seconds followed by a 300 second dissociation step. Affinity measurements are recorded in Table 3.

The target is the same in assay [4]. Description: LIF:LIFR blocking ELISA, coated human LIFR, biotinylated human LIF premixed with antibody. Here is the method:
Recombinant human LIFR was coated on maxisorp plates overnight at 4 C. The next day, plates were blocked with casein blocking buffer for 1 hr at 37 C. During this period, titrations of each antibody were mixed with biotinylated recombinant human LIF. Following blocking, the antibody/antigen premix was added to the plates and allowed to incubate for 1 hr at RT. Plates were then washed with 4×PBST and an HRP conjugated avidin secondary reagent was added for 30 min at room temperature. Plates were washed again with 4×PBST and then developed using TMB substrate and 1M HCl.

Where a chain is given by its changes, count along the chain named.

T1 sequence (P15018 23-202 limits assumed, form in doubt): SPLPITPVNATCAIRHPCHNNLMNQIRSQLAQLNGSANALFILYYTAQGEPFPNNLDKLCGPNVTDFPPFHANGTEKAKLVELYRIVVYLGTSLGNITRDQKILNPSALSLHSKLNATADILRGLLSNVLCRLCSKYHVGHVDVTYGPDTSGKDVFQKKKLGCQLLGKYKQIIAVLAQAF

B1: NB0919 (antibody, V domains shown)
VH: QVQLQESGPGLVKPSDTLSLTCTVSGFSFSTDYWWSWIRQPPGKGLEWIGYIYVGTSGDTYYNPSLKSRVTISVDTSKNQFSLKLSSVTAADTAVYYCAGADNPYDYFNLWGQGTLVTVSS
VL: DIQMTQSPSSLSASVGDRVTITCRASETISGYLNWYQQKPGKAPKLLIYRASSLQSGVPSRFSGSGSGTDFTLTISSLQPEDFATYYCQQGYSYSDTDNVFGGGTKVEIK
notes: Humanized variant of B7 by CDR grafting; also called Clone 919
On to B1, for which the “pSTAT3 inhibition assay IC50 (nM)” value in assay [1] turned out to be 52.7 nM. For the same molecule, the EC50 in assay [2] was determined as 0.17 nM. Besides, in assay [3], the Kd came to 19.6 nM.

B2: NB0937 (antibody, V domains shown)
VH: EVQLVESGGGLVQPGGSLRLSCAASGFSFSTDYWMSWVRQAPGKGLEWVSSIYVGTSGDTYYADSVKGRFTISRDNSKNTLYLQMDSLRAEDTAIYYCAGADNPYDYFNLWGQGTLVTVS
VL: B1 VL with L11V, N34A, Q55E, D70E, E81D
notes: Humanized variant of B7 by CDR grafting; also called Clone 937
With B2, the “pSTAT3 inhibition assay IC50 (nM)” value in assay [1] was 7.22 nM. For the same molecule, in assay [2], the EC50 came out at 0.08 nM. The Kd in assay [3] turned out to be 5.02 nM. Moreover, the IC50 in assay [4] is 16.6 nM.

B3: NB0938 (antibody, V domains shown)
VH: B2 VH
VL: B1 VL
notes: Humanized variant of B7 by CDR grafting; also called Clone 938
In the case of B3, in assay [1], the “pSTAT3 inhibition assay IC50 (nM)” value came to 11 nM. Further, the EC50 in assay [2] came out at 0.13 nM. Moreover, the Kd in assay [3] is 10.6 nM. The IC50 in assay [4] is 24.4 nM.

B4: NB0920 (antibody, V domains shown)
VH: B1 VH
VL: B1 VL with N34A, A43V, S53T, F83V
notes: Humanized variant of B7 by CDR grafting; also called Clone 920
Turning to B4, in assay [1], the “pSTAT3 inhibition assay IC50 (nM)” value is 38.7 nM. In addition, in assay [2], the half-maximal effective concentration (EC50) turned out to be 0.12 nM. Further, the Kd in assay [3] worked out at 9.97 nM.
